T1: hIL-11Rα (Homo sapiens, UniProt Q14626)
T1 sequence (Q14626 23-422): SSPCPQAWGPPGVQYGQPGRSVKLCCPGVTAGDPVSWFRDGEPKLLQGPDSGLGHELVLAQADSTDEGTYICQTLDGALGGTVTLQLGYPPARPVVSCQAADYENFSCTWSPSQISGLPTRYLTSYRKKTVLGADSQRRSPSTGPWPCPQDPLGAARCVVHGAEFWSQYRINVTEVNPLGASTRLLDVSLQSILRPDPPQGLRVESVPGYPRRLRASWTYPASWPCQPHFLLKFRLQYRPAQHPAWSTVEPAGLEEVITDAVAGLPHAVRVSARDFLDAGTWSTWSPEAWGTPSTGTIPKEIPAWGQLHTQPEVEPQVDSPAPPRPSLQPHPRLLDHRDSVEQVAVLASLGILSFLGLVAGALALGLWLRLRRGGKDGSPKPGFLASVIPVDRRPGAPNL

B1: mAb6: anti-IL-11Rα antibody; VH SEQ ID NO: 203, VL SEQ ID NO: 204; human IgG4 (S228P), kappa light chain (antibody, V domains shown)
VH: EVQLLESGGGLVQPGGSLRLSCAASGFTFSWYSMTWVRQAPGKGLEWVSSIVPYGDLTQYADSVKGRFTISRDNSKNTLYLQMNSLRAEDTAVYYCAKGPGWGSFDLWGRGTLVTVSS
VL: DIQMTQSPSSLSASVGDRVTITCQASQDINNYLNWYQQKPGKAPKLLIYDASNLQTGVPSRFSGSGSGTDFTFTISSLQPEDIATYYCQQHEFQSPTFGPGTKVDIK
modifications: human IgG4 S228P and kappa constant regions; mAb6 VH Chain; mAb6 VL Chain
notes: anti-IL-11Rα antibody; human IgG4 (S228P), kappa light chain
B2: mAb9: anti-IL-11Rα antibody; VH SEQ ID NO: 209, VL SEQ ID NO: 210; human IgG4 (S228P), kappa light chain (antibody, V domains shown)
VH: B1 VH with S50G
VL: B1 VL with F93S
modifications: human IgG4 and kappa constant regions; mAb9 VH Chain; mAb9 VL Chain
notes: as for B1
B3: mAb8: anti-IL-11Rα antibody; VH SEQ ID NO: 207, VL SEQ ID NO: 208; human IgG4 (S228P), kappa light chain (antibody, V domains shown)
VH: B1 VH with W31S, S33A, T35S
VL: B1 VL with F93S
modifications: human IgG4 and kappa constant regions; mAb8 VH Chain; mAb8 VL Chain
notes: as for B1
B4: mAb12: anti-IL-11Rα antibody; VH SEQ ID NO: 215, VL SEQ ID NO: 216; human IgG4 (S228P), kappa light chain (antibody, V domains shown)
VH: B1 VH with G103Y
VL: B1 VL with F93S
modifications: human IgG4 S228P and kappa constant regions; mAb12 VH Chain; mAb12 VL Chain
notes: as for B1
B5: mAb15: anti-IL-11Rα antibody; VH SEQ ID NO: 221, VL SEQ ID NO: 222; human IgG4 (S228P), kappa light chain (antibody, V domains shown)
VH: B1 VH
VL: B1 VL with F93T, S95T
modifications: human IgG4 S228P and kappa constant regions; mAb15 VH Chain; mAb15 VL Chain
notes: as for B1
B6: mAb7: anti-IL-11Rα antibody; VH SEQ ID NO: 205, VL SEQ ID NO: 206; human IgG4 (S228P), kappa light chain (antibody, V domains shown)
VH: B1 VH with W31N, S33A, T35S
VL: B1 VL with F93S
modifications: human IgG4 S228P and kappa constant regions; mAb7 VH Chain; mAb7 VL Chain
notes: as for B1
B7: mAb13: anti-IL-11Rα antibody; VH SEQ ID NO: 217, VL SEQ ID NO: 218; human IgG4 (S228P), kappa light chain (antibody, V domains shown)
VH: B1 VH with G99P, P100E, G101D, S104R
VL: B1 VL with F93S
modifications: human IgG4 S228P and kappa constant regions; mAb13 VH Chain; mAb13 VL Chain
notes: as for B1
B8: mAb11: anti-IL-11Rα antibody; VH SEQ ID NO: 213, VL SEQ ID NO: 214; human IgG4 (S228P), kappa light chain (antibody, V domains shown)
VH: B1 VH with P53D
VL: B1 VL with F93S
modifications: human IgG4 S228P and kappa constant regions; mAb11 VH Chain; mAb11 VL Chain
notes: as for B1
B9: mAb14: anti-IL-11Rα antibody; VH SEQ ID NO: 219, VL SEQ ID NO: 220; human IgG4 (S228P), kappa light chain (antibody, V domains shown)
VH: B1 VH with D62E
VL: B1 VL with F93S
modifications: human IgG4 S228P and kappa constant regions; mAb14 VH Chain; mAb14 VL Chain
notes: as for B1
B10: mAb10: anti-IL-11Rα antibody; VH SEQ ID NO: 211, VL SEQ ID NO: 212; human IgG4 (S228P), kappa light chain (antibody, V domains shown)
VH: B1 VH with P53A
VL: B1 VL with F93S
modifications: human IgG4 S228P and kappa constant regions; mAb10 VH Chain; mAb10 VL Chain
notes: as for B1

Numbering of substitutions follows the chain as printed. Numbers in names are those of the source.

The values below come from US20240425606A1, “ANTI-IL-11RA ANTIBODIES” (Lassen Therapeutics 1, Inc., priority 2021, published 2024).

For the first test, the system named is IL-11 signaling in STAT3 Reporter (Luciferase)—HEK293 cell line. As to the kind of experiment: Cell-based STAT3 reporter (luciferase) assay for inhibiting IL-11 signaling. Particulars: compared with TS7 and 8E2. More on the design: species or system human. The procedure: Further testing of the lead mAbs was carried out using a cell-based reporter assay. IL-11 is reported to signal through the STAT3 and ERK pathways. Therefore, a STAT3 reporter cell line in which firefly luciferase gene expression is driven by STAT3 response elements located upstream of a minimal TATA promoter was selected to analyze mAb functional activity. In these cells, IL-11 can activate the endogenous STAT3 allowing it to bind to the STAT3 response elements, inducing transcription of the luciferase reporter gene and resulting in readily detectable luciferase expression. Antibodies to IL-11R which block IL-11 signaling should inhibit expression of IL-11 driven luciferase in these cells.
The STAT3 Reporter (Luciferase)—HEK293 cell line (BPS Bioscience, catalog #79800-P) was grown, passaged, and assayed as per manufacturer's protocols. Cells were added at 25,000 cells per well in a 96-well microtiter dish and incubated at 37° C. for 30-45 min. in 5% CO2 humidified air. Anti-IL-11R mAbs were added as a 3-fold dilution series in duplicate columns or rows, and plates were returned to the incubator for an additional 1 h at 37° C. after which 40 ng/mL IL-11 was added to each well to initiate the signal transduction cascade and luciferase production. Plates were incubated for 18-24 hours at 37° C. and luciferase was detected using a One-Step Luciferase Assay System (BPS Bioscience, cat. no. 60690-1) as per manufacturer's instructions.
As for B1, the “relative potency at inhibiting IL-11 signaling (in words)” value is on record as “variable”.
Same read-out and setting: as for B2, the entry is “more potent at inhibiting IL-11 signaling than either of TS7 or 8E2”; as for B3, “less potent than TS7”.
For B4, the “relative potency at inhibiting IL-11 signaling (in words)” value is reported as “comparable in potency to TS7”.
Regarding B5, the “relative potency at inhibiting IL-11 signaling (in words)” value is reported as “comparable in potency to TS7”.
Regarding B6, the “relative potency at inhibiting IL-11 signaling (in words)” value is reported as “less potent than TS7”.
As to B7, the “relative potency at inhibiting IL-11 signaling (in words)” value is listed as “more potent at inhibiting IL-11 signaling than either of TS7 or 8E2”.
Consider B8, for which the “relative potency at inhibiting IL-11 signaling (in words)” value is “less potent than TS7”.
Still for that read-out and setting: the result for B9 reads “comparable in potency to TS7”; that for B10, “less potent than TS7”.

The next test concerns the target T1, hIL-11Rα. As to the kind of experiment: Kinetic binding analysis by biolayer interferometry (protein G biosensors, Octet RED96e). Particulars: beyond the ability of the instrument to determine an accurate off-rate (kd). How it is done:
Association was carried out in the presence of a 2-fold dilution series of hIL-11Rα and was allowed to proceed for 120 seconds; dissociation was measured for 300 to 1200 seconds.
B1: the “binding affinity (in words)” value is reported as “very high binding affinity”.
For B2, the “binding affinity (in words)” value is given as “very high binding affinity”.
On the same count and under the same terms, the result for B3 reads “very high binding affinity”; that for B4, “very high binding affinity”.
As for B5, the “binding affinity (in words)” value is on record as “very high binding affinity”.
As to B6, the “binding affinity (in words)” value is reported as “very high binding affinity”.
Still for that read-out and setting: as for B7, the entry is “very high binding affinity”.
On the same count and under the same terms, the result for B9 reads “very high binding affinity”.

Still in this test, the particulars now being: protein G biosensors; association 120 seconds.
B1 had a ka of 800000 M⁻¹ s⁻¹.
Same read-out and setting: as for B2, the figure is 62200 M⁻¹ s⁻¹.
For the molecule B3, the ka worked out at 65100 M⁻¹ s⁻¹.
B4 yielded a ka of 58100 M⁻¹ s⁻¹.
Consider B5, for which the ka came out at 84000 M⁻¹ s⁻¹.
B6 returned a ka of 63500 M⁻¹ s⁻¹.
Same read-out and setting: the result for B7 reads 66700 M⁻¹ s⁻¹; that for B8, 32900 M⁻¹ s⁻¹; that for B9, 33700 M⁻¹ s⁻¹.
With B10, the ka came to 840000 M⁻¹ s⁻¹.

The same test, now with this note: protein G biosensors; dissociation 300 to 1200 seconds.
Take B1: the kd was less than 1e-07 s⁻¹.
Still for that read-out and setting: the result for B2 reads less than 1e-07 s⁻¹.
Take B3: the kd was less than 1e-07 s⁻¹.
Still for that read-out and setting: the result for B4 reads less than 1e-07 s⁻¹; that for B5, less than 1e-07 s⁻¹; that for B6, less than 1e-07 s⁻¹.
Still for that read-out and setting: as for B7, the figure is less than 1e-07 s⁻¹.
Still for that read-out and setting: the result for B8 reads 0.0181 s⁻¹; that for B9, less than 1e-07 s⁻¹.
B10 registered a kd of 0.000416 s⁻¹.
